Reference: patent publication US20120178682A1, “GB1 Peptidic Compounds and Methods for Making and Using the Same” (priority 2010, published 2012)

B1: E01-V31A: E01 point mutant V31A (protein)
chain: MKIEEHHHHHHHHHHGGSTYKLILNGKTLKGETTTEAVDVYDAFDVFFAYAASNFSDFDDWTYDDATKTFTVTEGGSDK
B2: E01-D39F/D27E: E01 double mutant D39F/D27E (protein)
chain: MKIEEHHHHHHHHHHGGSTYKLILNGKTLKGETTTEAVDVYDAFEVFFVYAASNFSFFDDWTYDDATKTFTVTEGGSDK
B3: E01-F40I: E01 point mutant F40I (protein)
chain: MKIEEHHHHHHHHHHGGSTYKLILNGKTLKGETTTEAVDVYDAFDVFFVYAASNFSDIDDWTYDDATKTFTVTEGGSDK
B4: E01-D39F/S38G: E01 double mutant D39F/S38G (protein)
chain: MKIEEHHHHHHHHHHGGSTYKLILNGKTLKGETTTEAVDVYDAFDVFFVYAASNFGFFDDWTYDDATKTFTVTEGGSDK
B5: E01-A34S: E01 point mutant A34S (protein)
chain: MKIEEHHHHHHHHHHGGSTYKLILNGKTLKGETTTEAVDVYDAFDVFFVYASSNFSDFDDWTYDDATKTFTVTEGGSDK
B6: E01-S35R: E01 point mutant S35R (protein)
chain: MKIEEHHHHHHHHHHGGSTYKLILNGKTLKGETTTEAVDVYDAFDVFFVYAARNFSDFDDWTYDDATKTFTVTEGGSDK
B7: E01-D39F/V31A: E01 double mutant D39F/V31A (protein)
chain: MKIEEHHHHHHHHHHGGSTYKLILNGKTLKGETTTEAVDVYDAFDVFFAYAASNFSFFDDWTYDDATKTFTVTEGGSDK
B8: E01-D39F: E01 point mutant D39F; scaffold for double mutants (protein)
chain: MKIEEHHHHHHHHHHGGSTYKLILNGKTLKGETTTEAVDVYDAFDVFFVYAASNFSFFDDWTYDDATKTFTVTEGGSDK
B9: E01-D39F/V22L: E01 double mutant D39F/V22L (protein)
chain: MKIEEHHHHHHHHHHGGSTYKLILNGKTLKGETTTEAVDLYDAFDVFFVYAASNFSFFDDWTYDDATKTFTVTEGGSDK
B10: E01-S38G: E01 point mutant S38G (protein)
chain: MKIEEHHHHHHHHHHGGSTYKLILNGKTLKGETTTEAVDVYDAFDVFFVYAASNFGDFDDWTYDDATKTFTVTEGGSDK
B11: E01-V22L: E01 point mutant V22L, His-tagged, expressed in E. coli (protein)
chain: MKIEEHHHHHHHHHHGGSTYKLILNGKTLKGETTTEAVDLYDAFDVFFVYAASNFSDFDDWTYDDATKTFTVTEGGSDK
B12: E01-S35G: E01 point mutant S35G (protein)
chain: MKIEEHHHHHHHHHHGGSTYKLILNGKTLKGETTTEAVDVYDAFDVFFVYAAGNFSDFDDWTYDDATKTFTVTEGGSDK
B13: E01-D24G: E01 point mutant D24G (protein)
chain: MKIEEHHHHHHHHHHGGSTYKLILNGKTLKGETTTEAVDVYGAFDVFFVYAASNFSDFDDWTYDDATKTFTVTEGGSDK
B14: E01-D39F/S35R: E01 double mutant D39F/S35R (protein)
chain: MKIEEHHHHHHHHHHGGSTYKLILNGKTLKGETTTEAVDVYDAFDVFFVYAARNFSFFDDWTYDDATKTFTVTEGGSDK
B15: E01-D41V: E01 point mutant D41V (protein)
chain: MKIEEHHHHHHHHHHGGSTYKLILNGKTLKGETTTEAVDVYDAFDVFFVYAASNFSDFVDWTYDDATKTFTVTEGGSDK
B16: E01-D39F/S35G: E01 double mutant D39F/S35G (protein)
chain: MKIEEHHHHHHHHHHGGSTYKLILNGKTLKGETTTEAVDVYDAFDVFFVYAAGNFSFFDDWTYDDATKTFTVTEGGSDK
B17: E01-S38K: E01 point mutant S38K (protein)
chain: MKIEEHHHHHHHHHHGGSTYKLILNGKTLKGETTTEAVDVYDAFDVFFVYAASNFKDFDDWTYDDATKTFTVTEGGSDK
B18: E01-S35E: E01 point mutant S35E (protein)
chain: MKIEEHHHHHHHHHHGGSTYKLILNGKTLKGETTTEAVDVYDAFDVFFVYAAENFSDFDDWTYDDATKTFTVTEGGSDK
B19: E01-D27E: E01 point mutant D27E (protein)
chain: MKIEEHHHHHHHHHHGGSTYKLILNGKTLKGETTTEAVDVYDAFEVFFVYAASNFSDFDDWTYDDATKTFTVTEGGSDK
B20: E01-D39F/S35E: E01 double mutant D39F/S35E (protein)
chain: MKIEEHHHHHHHHHHGGSTYKLILNGKTLKGETTTEAVDVYDAFDVFFVYAAENFSFFDDWTYDDATKTFTVTEGGSDK
B21: E01-D39F/A34S: E01 double mutant D39F/A34S (protein)
chain: MKIEEHHHHHHHHHHGGSTYKLILNGKTLKGETTTEAVDVYDAFDVFFVYASSNFSFFDDWTYDDATKTFTVTEGGSDK
B22: E01-D39F/F40I: E01 double mutant D39F/F40I (protein)
chain: MKIEEHHHHHHHHHHGGSTYKLILNGKTLKGETTTEAVDVYDAFDVFFVYAASNFSFIDDWTYDDATKTFTVTEGGSDK

Target: D-VEGF
Assay: SPR affinity measurements of GB1 peptidic compounds on immobilized D-VEGF
Type: binding
Settings: for Kd / Koff / Kon: target D-VEGF; for effect of point mutation on affinity: notes to Table 5, relative to E01
Method: VEGF binding compounds were expressed. Binding affinities were measured using the […] SPR system. SPR analysis was performed on a ProteOn XPR36 Protein Interaction Array System (BioRad). Chemically synthesized L-VEGF, D-VEGF and VEGF165 (Peprotech) were immobilized in 50 mM Sodium Acetate (pH 5.5) to a non-dilute EDAC/sulfo-NHS activated GLC surface on separate channels using a flow rate of […] for 5 minutes in the vertical direction. Immobilization levels were monitored to ensure immobilization of approximately 500 response units of each protein. The domains were then stabilized with PBS for 30 seconds and 0.85% H3PO4 for 18 seconds each at […]. GB1 variants were diluted in PBS plus 0.05% Tween 20 at a starting concentration of 200 nM. The binders were further diluted with PBST 2-fold in series to produce 5 concentrations of variants. A PBST blank was also included. GB1 variant injection parameters were: […], 60 seconds contact time, and 600 seconds dissociation time, in the horizontal direction. VEGF proteins were regenerated with an injection of 0.85% H3PO4 at a flow rate of […] followed by a PBST wash of 30 seconds at […] flow rate.

[1] = Table 1, E01 point mutants expressed in E. coli
[2] = Table 2, GB1-E01 double mutants

Molecule	Kd (Table 1) [nM]	Koff (Table 1) [s⁻¹]	Kon [1] [M⁻¹ s⁻¹]	Kd [2] [nM]	Koff [2] [s⁻¹]	Kon [2] [M⁻¹ s⁻¹]	effect of point mutation on affinity
B1	7.8	0.00194	250000	–	–	–	–
B2	–	–	–	3.1	0.00158	511000	–
B3	11.1	0.00441	398000	–	–	–	–
B4	–	–	–	2.83	0.00131	463000	–
B5	7.8	0.00278	356000	–	–	–	–
B6	9.3	0.00258	279000	–	–	–	–
B7	–	–	–	2.99	0.00167	558000	–
B8	4.23	0.00213	504000	3.48	0.00132	380000	^3 D39F point mutant increased affinity
B9	–	–	–	1.14	0.00082	719000	–
B10	9	0.00387	428000	–	–	–	–
B11	5.8	0.00239	411000	–	–	–	^2 V22L point mutant increased affinity;
B12	8.79	0.00348	396000	–	–	–	–
B13	14.9	0.00247	166000	–	–	–	–
B14	–	–	–	5.35	0.00183	341000	–
B15	67.5	0.0333	493000	–	–	–	–
B16	–	–	–	5.4	0.00193	358000	–
B17	13.7	0.0028	204000	–	–	–	–
B18	7.47	0.00304	407000	–	–	–	–
B19	9.6	0.00333	347000	–	–	–	–
B20	–	–	–	4.52	0.00205	454000	–
B21	–	–	–	4.49	0.00174	387000	–
B22	–	–	–	2.29	0.00138	602000	–
